Test results from patent US20060246076A1.

Target: murine inducible nitric oxide synthase (murine) (UniProt P29477)

COX2-myc fragment 484-604 (from UniProt P35354)
PGE2 formation reduction: > 50%
